In patent US20240043507A1 (RQ BIOTECHNOLOGY, published 2024):

B1: antibody 40 (antibody, V domains shown)
VH: QVQLVESGGGLVQPGGSLRLSCAVSGFTVSRNYMSWVRQAPGKGLEWVSLIYSGGSTFYADSVKGRFTISRDNSKNTLYLQMNSLRAEDTAVYYCARDLFHRSGYHDYWGQGTLVTVSS
VL: not shown
notes: also called mAb 40
B2: antibody 58 (antibody, V domains shown)
VH: QVQLVESGGGLVQPGRSLRLSCAASGFTFDDYAMHWVRQPPGKGLEWVSGVSWNSGTIGYADSVKGRFIISRDNAKNSLYLQMNSLKAEDTALYYCAREVGGTFGVLISREGGLDYWGQGTLVTVSS
VL: SYELTQPPSVSVAPGQTARITCGGNTIGSKSVHWYQQRPGQAPVLVVYDDSDRPSGIPERFSGSNSGNTATLTISRVEAGDEADYYCQVWDSSSDRVVFGGGTKLTVL
notes: also called mAb 58
B3: Fab 45 (Fab, V domains shown)
VH: QVQLVESGGGVVQPGRSLRLSCAASGFTFSTYAMHWVRQAPGKGLEWVAVLSYDGSNKYYADSVKGRFTISRDNSKNTLYLQMNSLRAEDTAVYYCAKGGSYAYYYYMDVWGKGTTVTVSS
VL: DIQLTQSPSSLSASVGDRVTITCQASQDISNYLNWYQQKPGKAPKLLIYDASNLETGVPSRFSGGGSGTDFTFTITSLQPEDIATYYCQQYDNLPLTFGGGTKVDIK
B4: Fab 158 (Fab, V domains shown)
VH: EVQLLESGGDLIQPGGSLRLSCAASGVTVSSNYMSWVRQAPGKGLEWVSIIYPGGSTFYADSVKGRFTISRDNSKNTLYLQMHSLRAEDTAVYYCARDLGSGDMDVWGKGTTVTVSS
VL: DIVMTQSPSFLSASVGDRVTITCRASQGISSYLAWYQQKPGKAPKLLIQAASTLQSGVPSRFSGSGSGTEFTLTISSLQPEDFATYYCQQLNSYRYTFGQGTKVEIK
B5: Fab 165 (Fab, V domains shown)
VH: QVQLVQSGPEVKKPGTSVKVSCKASGFTFTSSAVQWVRQARGQRLEWIGWIVVGSGNTNYAQKFQESVTITRDMSTSTAYMELSSLRSEDTAVYYCAAPHCIGGSCHDAFDIWGQGTMVTVSS
VL: DIVMTQSPGTLSLSPGERATLSCRASQSVRSSYLAWYQQKPGQAPRLLIYGASRRGTGIPDRFSGSGSGTDFTLTISRLEPEDFAVYYCQQYGSSPWTFGQGTKVEIK
B6: Fab 175 (Fab, V domains shown)
VH: EVQLVESGGGLIQPGGSLRLSCAASGLTVSRNYMSWVRQAPGKGLEWVSLIYSGGSTYYADSVKGRFTISRDNSKNTLYLQMNSLRAEDTAVYYCARDLRGEVWGQGTMVTVSS
VL: not shown
B7: Fab 222 (Fab, V domains shown)
VH: EVQLVESGGGLIQPGGSLRLSCAASGLTVSSNYMSWVRQAPGKGLEWVSVIYSGGSTFYADSVKGRFTISRDNSKNTLYLQMNSLGAEDTAVYYCARGEGSPGNWFDPWGQGTLVTVSS
VL: DVVMTQSPGTLSLSPGERATLSCRASQSVPSSYLAWYQQKPGQAPRLLIYGASTRATGIPDRFSGSGSGTDFTLTISRLEPEDFAVYYCQHYDTSPRFGGGTKVDIK
notes: Fab
B8: Fab 269 (Fab, V domains shown)
VH: QVQLVESGGGLIQPGGSLRLSCAASGLTVNRNYMSWIRQAPGKGLEWVSVIYSGGSTFYADSVKGRFTISRDNSKNTLSLQMNSLRAEDTAIYYCARDFYEGSFDIWGQGTMVTVSS
VL: AIQLTQSPSFLSASIGDRVTITCRASQGISSYLAWYQQKPGKAPKLLIYAASTLQSGVPSRFSGSGSGTEFTLTISSLQPEDFASYYCQQLNSYPAPVFGPGTKVDIK
notes: also called 269 Fab; COVOX-269 Fab
B9: Fab 278 (Fab, V domains shown)
VH: QVQLVQSGAEVKKPGASVKVSCKASGYIFIRYGISWVRQAPGQGLEWMGWISANNGYTNYAQKLQGRVTMTTDTSTSTAYMELRSLRSDDTAVYYCARDGGILTGYLDYFDHWGQGTLVTVSS
VL: DIQMTQSPSSLSASVGDRLTITCRASQSIASYLNWYQQKPGKAPKLLIYAASSLQSGVPSRFSGSGSGTDFTLTISSLQPEDFATYHCQQSYSTLGITFGPGTKVDIK
B10: Fab 281 (Fab, V domains shown)
VH: QVQLVESGGGLVQPGGSLRLSCAASGFPFSIYWMSWVRQAPGKGLEWVANIKQDGSEKYYVDSVKGRFTISRDNAKNSLYLHMNSLRGEDTAVYYCASRYYDFRPEAWFDYWGQGTLVTVSS
VL: not shown
B11: Fab 316 (Fab, V domains shown)
VH: not shown
VL: QAVLTQPPSASGSPGQSVTISCTGTSSDVGGYNYVSWYQQHPGKAPKLMIYEVSKRPSGVPDRFSGSKSGNTASLTVSGLQAEDEADYYCSSYAGSNHWVFGGGTKLTVL
notes: also called 316 Fab (glycosylated)
B12: Fab 318 (Fab, V domains shown)
VH: QVQLVQSGPEVKKPGTSVKVSCKASGFTLTSSAMQWVRQARGQRLEWIGWIVVGSGNTNYAQKFQERVTITRDMSTSTAYMELSSLRSEDTAVYYCAAGRGYNSDFDYWGQGTLVTVSS
VL: AIRMTQSPGTLSLSPGERATLSCRASQSVSSSYLAWYQQRPGQAPRLLIYGTSSRATGIPDRFSGSGSGTDFTLTISRLEPEDFAVYYCQQYGYSVYTFGQGTKVDIK
B13: Fab 58 (Fab, V domains shown)
VH: QVQLVESGGGLVQPGRSLRLSCAASGFTFDDYAMHWVRQPPGKGLEWVSGVSWNSGTIGYADSVKGRFIISRDNAKNSLYLQMNSLKAEDTALYYCAREVGGTFGVLISREGGLDYWGQGTLVTVSS
VL: SYELTQPPSVSVAPGQTARITCGGNTIGSKSVHWYQQRPGQAPVLVVYDDSDRPSGIPERFSGSNSGNTATLTISRVEAGDEADYYCQVWDSSSDRVVFGGGTKLTVL
B14: antibody 40 (antibody, V domains shown)
VH: QVQLVESGGGLVQPGGSLRLSCAVSGFTVSRNYMSWVRQAPGKGLEWVSLIYSGGSTFYADSVKGRFTISRDNSKNTLYLQMNSLRAEDTAVYYCARDLFHRSGYHDYWGQGTLVTVSS
VL: not shown
B15: antibody 58 (antibody, V domains shown)
VH: QVQLVESGGGLVQPGRSLRLSCAASGFTFDDYAMHWVRQPPGKGLEWVSGVSWNSGTIGYADSVKGRFIISRDNAKNSLYLQMNSLKAEDTALYYCAREVGGTFGVLISREGGLDYWGQGTLVTVSS
VL: SYELTQPPSVSVAPGQTARITCGGNTIGSKSVHWYQQRPGQAPVLVVYDDSDRPSGIPERFSGSNSGNTATLTISRVEAGDEADYYCQVWDSSSDRVVFGGGTKLTVL
B16: antibody 88 (antibody, V domains shown)
VH: QLQLQESGPGLVKPSQTLSLTCTVSGGSISSGSYNWTWIRQPAGKGLEWIGRIYNSGSTNYNPSLKSRVTISVDTSKNQLSLKVRSVTAADTAVYYCARHCSGGTCYPKYYYGMDVWGQGTTVTVSS
VL: QSALTQPPSVSEAPRQRVTISCSGSSSNIGNNAVNWYQQFPGKAPKLLIYYDDLLPSGVSDRFSGSKSGTSASLAISGVQSEDEADYYCAAWDDSLNVVVFGGGTKLTVL
B17: antibody 158 (antibody, V domains shown)
VH: EVQLLESGGDLIQPGGSLRLSCAASGVTVSSNYMSWVRQAPGKGLEWVSIIYPGGSTFYADSVKGRFTISRDNSKNTLYLQMHSLRAEDTAVYYCARDLGSGDMDVWGKGTTVTVSS
VL: DIVMTQSPSFLSASVGDRVTITCRASQGISSYLAWYQQKPGKAPKLLIQAASTLQSGVPSRFSGSGSGTEFTLTISSLQPEDFATYYCQQLNSYRYTFGQGTKVEIK
B18: antibody 175 (antibody, V domains shown)
VH: EVQLVESGGGLIQPGGSLRLSCAASGLTVSRNYMSWVRQAPGKGLEWVSLIYSGGSTYYADSVKGRFTISRDNSKNTLYLQMNSLRAEDTAVYYCARDLRGEVWGQGTMVTVSS
VL: not shown
B19: antibody 222 (antibody, V domains shown)
VH: EVQLVESGGGLIQPGGSLRLSCAASGLTVSSNYMSWVRQAPGKGLEWVSVIYSGGSTFYADSVKGRFTISRDNSKNTLYLQMNSLGAEDTAVYYCARGEGSPGNWFDPWGQGTLVTVSS
VL: DVVMTQSPGTLSLSPGERATLSCRASQSVPSSYLAWYQQKPGQAPRLLIYGASTRATGIPDRFSGSGSGTDFTLTISRLEPEDFAVYYCQHYDTSPRFGGGTKVDIK
B20: antibody 269 (antibody, V domains shown)
VH: QVQLVESGGGLIQPGGSLRLSCAASGLTVNRNYMSWIRQAPGKGLEWVSVIYSGGSTFYADSVKGRFTISRDNSKNTLSLQMNSLRAEDTAIYYCARDFYEGSFDIWGQGTMVTVSS
VL: AIQLTQSPSFLSASIGDRVTITCRASQGISSYLAWYQQKPGKAPKLLIYAASTLQSGVPSRFSGSGSGTEFTLTISSLQPEDFASYYCQQLNSYPAPVFGPGTKVDIK
B21: antibody 281 (antibody, V domains shown)
VH: QVQLVESGGGLVQPGGSLRLSCAASGFPFSIYWMSWVRQAPGKGLEWVANIKQDGSEKYYVDSVKGRFTISRDNAKNSLYLHMNSLRGEDTAVYYCASRYYDFRPEAWFDYWGQGTLVTVSS
VL: not shown
B22: antibody 316 (antibody, V domains shown)
VH: not shown
VL: QAVLTQPPSASGSPGQSVTISCTGTSSDVGGYNYVSWYQQHPGKAPKLMIYEVSKRPSGVPDRFSGSKSGNTASLTVSGLQAEDEADYYCSSYAGSNHWVFGGGTKLTVL
B23: antibody 318 (antibody, V domains shown)
VH: QVQLVQSGPEVKKPGTSVKVSCKASGFTLTSSAMQWVRQARGQRLEWIGWIVVGSGNTNYAQKFQERVTITRDMSTSTAYMELSSLRSEDTAVYYCAAGRGYNSDFDYWGQGTLVTVSS
VL: AIRMTQSPGTLSLSPGERATLSCRASQSVSSSYLAWYQQRPGQAPRLLIYGTSSRATGIPDRFSGSGSGTDFTLTISRLEPEDFAVYYCQQYGYSVYTFGQGTKVDIK
B24: antibody 398 (antibody, V domains shown)
VH: QVQLVESGGGLVQPGGSLRLSCAASGFTVSSNYMTWVRQAPGKGLEWVSVIYSGGSTYYADSVKGRFTISRDNSKNTLYLQMNSLRADDTAVYYCARDSTADYDFWSGYYVGAFHIWGQGTMVTVSS
VL: QTVLTQPASVSGSPGQSITISCTGTSSDVGGYNYVSWYQQHPGKAPKLMIYEVTKRPSGVPDRFSGSKSGNTASLTVSGLQAEDEADYYCSSYAGSNNWVFGGGTKLTVL
B25: antibody 253H165L (antibody, V domains shown)
VH: not shown
VL: DIVMTQSPGTLSLSPGERATLSCRASQSVRSSYLAWYQQKPGQAPRLLIYGASRRGTGIPDRFSGSGSGTDFTLTISRLEPEDFAVYYCQQYGSSPWTFGQGTKVEIK

The binders below were run against T1, SARS-CoV-2 spike receptor binding domain, native (SARS-CoV-2, UniProt P0DTC2 330-532) (assay: BLI, RBD on AR2G biosensor, mAb as analyte).
T1 construct: range 330-532

Binder	Kd [nM]
B1	1.33
B2	1.46

The binders below were run against T2, SARS-CoV-2 receptor binding domain (RBD), native (SARS-CoV-2, UniProt P0DTC2 330-532) (assay: BLI, Fab and RBD).
T2 construct: range 330-532

Binder	Kd [nM]	koff [s⁻¹]	kon [M⁻¹ s⁻¹]
B3	5.9	0.00046	78000
B4	0.7		
B5	4.8		
B6	2.4		
B7	3		
B8	2.2		
B9	3		
B10	1		
B11	2		
B12	7.6		
B13	3.4		

These binders were tested against SARS-CoV-2 spike receptor binding domain (native RBD) (SARS-CoV-2, UniProt P0DTC2 330-532) (assay: not given).

Binder	Kd [nM]
B14	0.55
B15	0.3
B16	0.64
B17	0.53
B18	0.97
B19	0.29
B20	1.59
B21	3.2
B22	1.5
B23	2.23
B24	1.02
B25	0.73
